Results on one substance are retold here after patent US20200283478.

Data set [1] relates to T1, Compound 112.
T1 sequence: WNLVRIGLTR

The test system of data set [2] is T2, Compound 26.
T2 sequence: SGCFIPWNLQRIGLLC

The subject of data set [3] is T3, Compound 29.
T3 sequence: SGCFIPWNLQRIGLLC

Data set [4] concerns T4, Pep2-8.
T4 sequence: TVFTSWEEYLDWV

Consider PCSK9-R167A:R215A:R218A, for which the “FXIa cleavage of the P′ helix (immunoblot)” value in data set [1] is reported as “able to increase the FXIa-mediated cleavage of the P′ helix at R160-I161 in a similar fashion as shown for Fab33”; in data set [2] it was “accelerated the cleavage reaction, leading to almost complete cleavage of the P′ helix”; in data set [3], “accelerated the cleavage reaction, leading to almost complete cleavage of the P′ helix”; in data set [4], “largely prevented cleavage of the P′ helix by FXIa”.
